{
  "source": "patent US7429564B2",
  "about": "“Oral insulin therapy” (Emisphere Technologies, Inc., priority 2002, dated 2008)",
  "set-up": "species or system rats",
  "settings": "rat, in vivo, po",
  "experimental": "Similarly, for a fixed oral dose of 4-CNAB, insulin absorption increases with increasing doses of insulin. Oral insulin absorption was evaluated in rats at varying doses of both insulin and 4-CNAB. […] The mean peak serum insulin levels were 31, 44, 85, and 132 μU/mL respectively. Insulin absorption was dose dependent and increased as the dose of insulin increased. […] The mean peak serum insulin levels were 9, 39, 103, and 157 μU/mL, respectively. Insulin absorption was dose dependent and increased as the dose of 4-CNAB increased.",
  "data": [
    {"substance": "oral insulin alone: recombinant human zinc insulin given orally without delivery agent", "values": [
      {"measurement": "Change in serum insulin levels", "value": "did not result in any significant increases in serum insulin levels"}
    ]}
  ]
}
